Biological target: T1, recombinant fusion protein including mouse PD-1 and immunoglobulin Fc portion (mouse, UniProt Q02242 25-167, limits assumed)
T1 construct: also called mouse PD-1-Fc; not shown: immunoglobulin Fc portion
T1 sequence (looked up): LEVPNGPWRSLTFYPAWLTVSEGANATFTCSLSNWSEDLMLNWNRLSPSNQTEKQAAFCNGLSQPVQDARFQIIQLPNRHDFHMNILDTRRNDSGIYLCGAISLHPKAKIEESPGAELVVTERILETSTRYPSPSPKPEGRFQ
Assay: ELISA: mouse PD-1-Fc immobilized in wells; scFv from conditioned medium of conv./PD-1 and 7x19/PD-1 CAR-T cells captured; detected with anti-FLAG tag or anti-6xHis tag; signal observed for both (FIG. 15)
Method: Prior to using various CAR-T cells in experiments, the concentration of anti-mPD-1 scFv (also referred to PD-1scFv) was measured using two kinds of ELISA kit. Specifically, a conditioned medium of the untransduced T cells, the anti-hCD20-CAR-expressing T cells, the anti-hCD20 CAR-IL-7/CCL19-expressing T cells, the anti-hCD20-CAR-anti-PD-1-antibody-expressing T cells, or the anti-hCD20-CAR-IL-7/CCL19-anti-PD-1-antibody-expressing T cells was collected after 2 days of cultivation, and the concentrations of […] in the conditioned medium were measured using ELISA. In the ELISA, a recombinant fusion protein including mouse PD-1 and immunoglobulin Fc portion was immobilized in the wells, PD-1 scFv was captured thereto, and an anti-FLAG tag or anti-6xHis tag was used for detection. In FIG. 15, the average value over the triplicate wells as well as the standard deviation thereof are indicated in the graph. In each graph, data are arranged from the left to the right: the untransduced T cells (uninf.), the anti-hCD20-CAR-expressing T cells (conv.), the anti-hCD20 CAR-IL-7/CCL19-expressing T cells (7×19), the anti-hCD20-CAR-anti-PD-1-antibody-expressing T cells (conv./PD-1), the anti-hCD20-CAR-IL-7/CCL19-anti-PD-1-antibody-expressing T cells (7×19/PD-1), and a culture medium only (data obtained by performing the same treatment on the culture liquid to which T cells were not added).

B1: anti-mPD-1 scFv (anti-mouse-PD-1 scFv with FLAG tag and His tag, secreted by transduced mouse T cells) (scFv)
scFv: QFVLTQPKTVSESLGRTVTISCKRSSGSVGDYYVSWHQQRFGSSPKTVIYLDDERPSGVPKRFSGSIDSSSNSASLTITDLQTDDEADYFCLSYDSNNHFVFGSGTHLTVLGGGGSGGGGSGGGGSEVQLVESGGGLAQPGKSLKLSCEASGFTFSDYGMNWFRQAPGKGLEWVAYISSGSNKITYADTVKGRFTVSRDNGKNQLFLQMNNLKSEDTAIYYCVDSGFNSYSDVWGQGIQVTVSSDYKDDDDKFVEHHHHHH
notes: It was tested as conditioned medium and was not purified; also called anti-PD-1 scFv
  binding result: binds

— patent US20220401480A1 (NOILE IMMUNE BIOTECH, published 2022)
